Target: the molecule itself
Experiment: crystal structure; crystals grown in Tris buffer, soaked in Tricine-buffered Tris-free solution without or with amino acids (L-Ser, L-Hse, Gly, L-Ala, L-Thr); space group P4(1)2(1)2, one molecule per asymmetric unit, dimer generated by crystallographic symmetry; 100 K

B1: Sphingobacterium multivorum serine palmitoyltransferase (enzyme, UniProt A7BFV6 1-399, looked up)
chain: MSKGKLGEKISQFKIVEELKAKGLYAYFRPIQSKQDTEVKIDGRRVLMFGSNSYLGLTTDTRIIKAAQDALEKYGTGCAGSRFLNGTLDIHVELEEKLSAYVGKEAAILFSTGFQSNLGPLSCLMGRNDYILLDERDHASIIDGSRLSFSKVIKYGHNNMEDLRAKLSRLPEDSAKLICTDGIFSMEGDIVNLPELTSIANEFDAAVMVDDAHSLGVIGHKGAGTASHFGLNDDVDLIMGTFSKSLASLGGFVAGDADVIDFLKHNARSVMFSASMTPASVASTLKALEIIQNEPEHIEKLWKNTDYAKAQLLDHGFDLGATESPILPIFIRSNEKTFWVTKMLQDDGVFVNPVVSPAVPAEESLIRFSLMATHTYDQIDEAIEKMVKVFKQAEVETLI
modifications: PLP-Lys244 internal aldimine (ligand-free form); in the amino acid complexes PLP forms an external aldimine with the amino acid
notes: serine palmitoyltransferase of Sphingobacterium multivorum, full length, 398 amino acid residues; the model holds Ser2 to Val395; no tag is mentioned; also called S. multivorum SPT; SPT; source: E. coli BL21 (DE3) pLysS, purified (DEAE, Butyl, second DEAE column chromatography, desalting)
  binding result: binds

— PMC10196870, “Structural insights into the substrate recognition of serine palmitoyltransferase from Sphingobacterium multivorum” (The Journal of Biological Chemistry, 2023)
